Numbering of substitutions follows the chain as printed.
Legend:
[1] = target: T1, human CD22 on CD22-positive Burkitt's lymphoma cells (Daudi, Raji, Ramos) (human, UniProt P20273 20-847); test: cell binding, Daudi cells
T1 construct: whole, on cells; also called CD22+ cells; CD22 positive cells
T1 sequence (looked up): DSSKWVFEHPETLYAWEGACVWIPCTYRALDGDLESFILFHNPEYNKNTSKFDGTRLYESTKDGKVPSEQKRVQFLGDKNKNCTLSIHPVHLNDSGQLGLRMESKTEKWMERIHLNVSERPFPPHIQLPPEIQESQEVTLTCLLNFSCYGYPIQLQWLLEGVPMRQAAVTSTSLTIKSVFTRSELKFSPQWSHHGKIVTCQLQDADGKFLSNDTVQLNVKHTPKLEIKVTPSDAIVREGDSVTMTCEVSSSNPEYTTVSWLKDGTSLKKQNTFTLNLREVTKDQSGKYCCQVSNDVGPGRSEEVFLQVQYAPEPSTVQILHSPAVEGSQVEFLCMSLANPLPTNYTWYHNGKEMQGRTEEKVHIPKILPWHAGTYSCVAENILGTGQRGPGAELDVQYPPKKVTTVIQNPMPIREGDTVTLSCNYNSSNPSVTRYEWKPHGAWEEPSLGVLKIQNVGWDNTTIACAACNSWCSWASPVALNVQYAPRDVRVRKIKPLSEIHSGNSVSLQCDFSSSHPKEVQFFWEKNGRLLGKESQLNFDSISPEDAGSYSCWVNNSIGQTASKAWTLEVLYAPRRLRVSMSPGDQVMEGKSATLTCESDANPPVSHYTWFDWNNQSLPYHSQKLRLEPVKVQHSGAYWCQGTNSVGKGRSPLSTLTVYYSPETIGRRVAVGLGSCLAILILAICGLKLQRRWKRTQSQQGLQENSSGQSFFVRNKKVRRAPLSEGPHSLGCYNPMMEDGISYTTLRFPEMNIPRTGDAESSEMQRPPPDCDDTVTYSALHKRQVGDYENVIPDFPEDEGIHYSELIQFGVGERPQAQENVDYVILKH
Procedure: Binding to CD22 positive cells was assessed by flow cytometry (Guava easyCyte 8HT, EMD Millipore) using the Daudi cell line (ATCC). Briefly, 100,000 target cells were stained with a dilution series of purified UniAbs™ for 30 minutes at 4° C. Following incubation, the cells were washed twice with flow cytometry buffer (1×PBS, 1% BSA, 0.1% NaN_3) and stained with goat F(ab')2 anti-human IgG conjugated to R-phycoerythrin (PE) (Southern Biotech, cat. #2042-09) to detect cell-bound antibodies. After a 20-minute incubation at 4° C., the cells were washed twice with flow cytometry buffer and then mean fluorescence intensity (MFI) was measured by flow cytometry. EC50 values were calculated using GraphPad Prism 7. Binding to *cynomolgus* CD22 positive cells was determined using the same protocol with the following modifications: the target cells were from CHO cells stably transfected to express the extracellular domain of *cynomolgus* CD22 and each antibody was tested at a single concentration (~1.7 µg/mL) so EC50 values were not calculated.

[2] = target: T2, human CD22 protein (recombinant CD22 extracellular domain) (human, UniProt P20273 20-687); test: ELISA on recombinant CD22 extracellular domain and/or cell binding
T2 construct: extracellular domain; also called SIGLEC-2
T2 sequence (looked up): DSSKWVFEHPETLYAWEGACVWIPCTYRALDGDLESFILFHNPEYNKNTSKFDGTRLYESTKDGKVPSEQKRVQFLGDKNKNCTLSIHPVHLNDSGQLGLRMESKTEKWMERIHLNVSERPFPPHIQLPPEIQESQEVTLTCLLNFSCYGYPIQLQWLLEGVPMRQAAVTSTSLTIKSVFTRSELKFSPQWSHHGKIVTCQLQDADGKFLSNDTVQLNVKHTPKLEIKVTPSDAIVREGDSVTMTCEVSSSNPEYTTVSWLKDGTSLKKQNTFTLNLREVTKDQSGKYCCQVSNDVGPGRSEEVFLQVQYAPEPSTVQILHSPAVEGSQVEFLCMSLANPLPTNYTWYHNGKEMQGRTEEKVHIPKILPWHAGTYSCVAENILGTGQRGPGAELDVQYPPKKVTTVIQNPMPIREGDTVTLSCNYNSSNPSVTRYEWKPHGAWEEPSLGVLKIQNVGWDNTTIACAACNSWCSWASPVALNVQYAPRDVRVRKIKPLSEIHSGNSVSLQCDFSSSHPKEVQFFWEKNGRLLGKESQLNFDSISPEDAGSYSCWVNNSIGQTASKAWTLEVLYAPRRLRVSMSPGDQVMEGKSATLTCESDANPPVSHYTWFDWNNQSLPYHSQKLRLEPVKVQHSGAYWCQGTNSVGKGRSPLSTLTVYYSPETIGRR

B1: anti-CD22 heavy chain-only antibody with the VH of SEQ ID NO: 55 (antibody, V domains shown)
VH: QLQLQESGPGLVKPSETLSLTCAVYGGSFSGYYWGWIRQPPGKGLEWIGHIYYSGATYYNPSLKNRVTISVDTSRNQFSLNLSSVTAADTAVYYCTREDSSSWRSRGQGTLVTVSS
notes: Heavy chain-only antibody (UniAb), human IgG
binding result [1]: binds | binding result [2]: binds

B2: anti-CD22 heavy chain-only antibody with the VH of SEQ ID NO: 59 (antibody, V domains shown)
VH: QLQLQESGPGLVKPSETLSLTCTVSGDSISSSSYYWGWIRQPPGKGLEWIGSIYYSGSTYYNPSLKSRVTISVDTSKNQFSLKLSSVTAADTAVYYCTREDSSNWRSRGQGTLVTVSS
notes: as for B1
binding result [1]: binds | binding result [2]: binds

B3: anti-CD22 heavy chain-only antibody with the VH of SEQ ID NO: 77 (antibody, V domains shown)
VH: B2 VH with D27G, I39F, Q41H, E48D, Y54H, K77R, K83N, E100D
notes: as for B1
binding result [1]: binds | binding result [2]: binds

B4: anti-CD22 heavy chain-only antibody with the VH of SEQ ID NO: 72 (antibody, V domains shown)
VH: B2 VH with D27G, S58A, S67N, K77R, K83N, V94M
notes: as for B1
binding result [1]: binds | binding result [2]: binds

B5: anti-CD22 heavy chain-only antibody with the VH of SEQ ID NO: 81 (antibody, V domains shown)
VH: B2 VH with D27G, S30I, T59A, N62H, V73I, T98A, E100D
notes: as for B1
binding result [1]: binds | binding result [2]: binds

B6: anti-CD22 heavy chain-only antibody with the VH of SEQ ID NO: 62 (antibody, V domains shown)
VH: B2 VH with D27G, S52H, S58A, S67N, K77R, K83N, N104S
notes: as for B1
binding result [1]: binds | binding result [2]: binds

B7: anti-CD22 heavy chain-only antibody with the VH of SEQ ID NO: 69 (antibody, V domains shown)
VH: B2 VH with D27G
notes: as for B1
binding result [1]: binds | binding result [2]: binds

B8: anti-CD22 heavy chain-only antibody with the VH of SEQ ID NO: 67 (antibody, V domains shown)
VH: B2 VH with D27G, S30T, E100D
notes: as for B1
binding result [1]: binds | binding result [2]: binds

B9: anti-CD22 heavy chain-only antibody with the VH of SEQ ID NO: 70 (antibody, V domains shown)
VH: B2 VH with K13R, D27G, N104S
notes: as for B1
binding result [1]: binds | binding result [2]: binds

B10: anti-CD22 heavy chain-only antibody with the VH of SEQ ID NO: 75 (antibody, V domains shown)
VH: B2 VH with D27G, S52H, S58A, S67N, N104S
notes: as for B1
binding result [1]: binds | binding result [2]: binds

B11: anti-CD22 heavy chain-only antibody with the VH of SEQ ID NO: 66 (antibody, V domains shown)
VH: B2 VH with D27G, S67N
notes: as for B1
binding result [1]: binds | binding result [2]: binds

B12: anti-CD22 heavy chain-only antibody with the VH of SEQ ID NO: 78 (antibody, V domains shown)
VH: B2 VH with G8D, D27G, Y34H, S52H, S58A, S67N, K77R, K83N
notes: as for B1
binding result [1]: binds | binding result [2]: binds

B13: anti-CD22 heavy chain-only antibody with the VH of SEQ ID NO: 60 (antibody, V domains shown)
VH: B2 VH with D27G, T98A, N104S
notes: as for B1
binding result [1]: binds | binding result [2]: binds

B14: anti-CD22 heavy chain-only antibody with the VH of SEQ ID NO: 73 (antibody, V domains shown)
VH: B2 VH with D27G, S58V, S67N, N104S
notes: as for B1
binding result [1]: binds | binding result [2]: binds

B15: anti-CD22 heavy chain-only antibody with the VH of SEQ ID NO: 61 (antibody, V domains shown)
VH: B2 VH with D27G, S58A, S67N, N104S
notes: as for B1
binding result [1]: binds | binding result [2]: binds

B16: anti-CD22 heavy chain-only antibody with the VH of SEQ ID NO: 79 (antibody, V domains shown)
VH: B2 VH with D27G, S67N, K77R, K83N, E100D
notes: as for B1
binding result [1]: binds | binding result [2]: binds

B17: anti-CD22 heavy chain-only antibody with the VH of SEQ ID NO: 82 (antibody, V domains shown)
VH: B2 VH with D27G, S58A, S67N, K77R, K83N, E100D
notes: as for B1
binding result [1]: binds | binding result [2]: binds

B18: anti-CD22 heavy chain-only antibody with the VH of SEQ ID NO: 80 (antibody, V domains shown)
VH: B2 VH with D27G, S52H, S58A, S67N, K77R, K83N
notes: as for B1
binding result [1]: binds | binding result [2]: binds

B19: anti-CD22 heavy chain-only antibody with the VH of SEQ ID NO: 74 (antibody, V domains shown)
VH: B2 VH with S32G, S33D, P42S, G44E, S52H, S58V, S67N, T98K, E100D
notes: as for B1
binding result [1]: binds | binding result [2]: binds

B20: anti-CD22 heavy chain-only antibody with the VH of SEQ ID NO: 64 (antibody, V domains shown)
VH: B2 VH with D27G, S52H, S58A, S67N, E100D
notes: as for B1
binding result [1]: binds | binding result [2]: binds

B21: anti-CD22 heavy chain-only antibody with the VH of SEQ ID NO: 76 (antibody, V domains shown)
VH: B2 VH with D27G, I53V, S56T, S58A, S67N, E100D
notes: as for B1
binding result [1]: binds | binding result [2]: binds

B22: anti-CD22 heavy chain-only antibody with the VH of SEQ ID NO: 71 (antibody, V domains shown)
VH: B2 VH with D27G, S58A, S67N, K77R, K83N
notes: as for B1
binding result [1]: binds | binding result [2]: binds

B23: anti-CD22 heavy chain-only antibody with the VH of SEQ ID NO: 84 (antibody, V domains shown)
VH: QLQLQESGPGLVKPSETLSLTCTVSGGSINDNSHYWGWIRQPPGKGLEWIGHIYYSGATYYNPSLKNRVTISVDTSRNQFSLNLSSVTAADTAVYYCTREDSSSWRSRGQGTLVTVSS
notes: as for B1
binding result [1]: binds | binding result [2]: binds

B24: anti-CD22 heavy chain-only antibody with the VH of SEQ ID NO: 68 (antibody, V domains shown)
VH: B2 VH with D27G, S58V, S67N
notes: as for B1
binding result [1]: binds | binding result [2]: binds

B25: anti-CD22 heavy chain-only antibody with the VH of SEQ ID NO: 65 (antibody, V domains shown)
VH: B23 VH with N30S, D31S, N32S, H34Y, H52S
notes: as for B1
binding result [1]: binds | binding result [2]: binds

B26: anti-CD22 heavy chain-only antibody with the VH of SEQ ID NO: 83 (antibody, V domains shown)
VH: B2 VH with S32G, S33D, S52H, S58A, S67N, K77R, F80S, K83N
notes: as for B1
binding result [1]: binds | binding result [2]: binds

B27: anti-CD22 heavy chain-only antibody with the VH of SEQ ID NO: 63 (antibody, V domains shown)
VH: B2 VH with D27G, N104S
notes: as for B1
binding result [1]: binds | binding result [2]: binds
